Results on one molecule are retold here after patent US20220348623A1 (Biogen, published 2022).

In this assay the target is T1, AspN-treated GDF11 (human, UniProt O95390 60-114; O95390 122-407, N-linked glycan at Asn-94, biotinylated through the glycan (Octet)).
T1 construct: Full length GDF11 (ACE378) cleaved with endoproteinase AspN only; Glycopeptide 60-114 stays non-covalently associated with fragment 122-407, about 100 kDa by SEC; Minor fragments 60-117, 128-407, 133-407 and 25-114/117 were also detected; also called AspN digested GDF11; GDF11 Asp-N biotin sample
T1 sequence (peptide): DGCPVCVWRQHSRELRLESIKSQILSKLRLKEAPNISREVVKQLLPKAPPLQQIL
T1 sequence: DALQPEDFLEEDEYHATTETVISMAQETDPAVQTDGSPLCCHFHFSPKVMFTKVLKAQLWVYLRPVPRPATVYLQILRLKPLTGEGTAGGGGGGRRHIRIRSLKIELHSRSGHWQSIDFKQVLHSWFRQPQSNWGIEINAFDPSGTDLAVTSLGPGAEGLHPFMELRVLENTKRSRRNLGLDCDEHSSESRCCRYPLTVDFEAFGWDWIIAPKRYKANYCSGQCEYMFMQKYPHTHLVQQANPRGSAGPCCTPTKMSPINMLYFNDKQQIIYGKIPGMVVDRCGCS
The assay is described as follows: Octet, biotinylated GDF11 sample captured on Streptavidin sensor, receptor-Fc in solution. On the procedure: Following this treatment, GDF11 peptide 60-112/114 was in the supernatant and the rest of the protein precipitated and was in the pellet fraction. The specificity of labeling of GDF11 with biotin hydrazide was confirmed by Western blotting using Streptavidin Horseradish peroxidase for detection. Only full length GDF11 and glycopeptide 60-114 were detected and not the major fragments 122-407 or 299-407. Octet Binding Studies. Binding characteristics of the biotinylated samples were evaluated by Octet on an Octet RED System (FortéBio™, Menlo Park, Calif.) using Dip and Read™ Streptavidin (SA) Biosensors (FortéBio™). Samples were prepared in 5 mM NaH₂PO₄ pH 6.0, 150 mM NaCl, 0.005% Tween-20. […] The ability of biotinylated AspN/furin GDF11 to bind Type I and II receptors was also assessed by Octet using the same loading conditions, followed by treatment of the receptors at 10 μg/mL. […] The tips were washed for 1 min and dissociation monitored for 30 min in the presence of 20 μM free biotin. For secondary binding studies with the receptors, the tips were loaded with biotinylated GDF11 and controls, and washed as described above, then the receptor samples were loaded for 15 min and dissociation monitored for 5 min.
The binding characteristics of the GDF11 peptide 60-112/114 for mature GDF11 residues 299-407 and for AspN fragment residues 122-407 were assessed using an Octet Red system. […]
(In general: In BLI a coated tip is dipped into the sample, and binding shifts an interference pattern.)

B1: Recombinant Human Activin RIB (ALK-4)-Fc chimeric protein (Fc fusion, UniProt P36896 24-126, looked up)
chain: SGPRGVQALLCACTSCLQANYTCETDGACMVSIFNLDGMEHHVRTCIPKVELVPAGKPFYCLSSEDLRNTHCCYTDYCNRIDLRVPSGHLKEPEHPSMWGPVE
notes: Bought from R&D systems; also called Activin RIB-Fc; Type I receptor; Fc part of the bought chimera not given
Take B1: the binding result is “no binding”.
